Test system: T1, R5 peptide
T1 sequence: SSKKSGSYSGSKGSKRRIL

Substance: JMJD6 (Auxenochlorella protothecoides)
- enzymatic modification of R5 (Hydroxylation): resulted in no modifications

Substance: JMJD6 (Nannochloropsos gaditana)
- enzymatic modification of R5 (Hydroxylation): resulted in no modifications

Substance: LIPT1
- enzymatic modification of R5 (Lipidation): resulted in no modifications

Substance: Protein Kinase A (PKA) (NEB P6000S)
- phosphorylation sites on R5 (LC-MS/MS): primary phosphorylation at Ser11, with very low levels of phosphorylation at Ser4, Ser7, and Ser1.6

Substance: THAOC_04424
- enzymatic modification of R5 (Hydroxylation): resulted in no modifications

Substance: THAOC_24272
- methylation of R5 (LC-MS, LC-MS/MS): the methylation occurs on all four lysine with no discernable preference or pattern

Substance: THAOC_27572
- enzymatic modification of R5 (Hydroxylation): resulted in no modifications

Substance: THAOC_37500
- methylation of R5 (LC-MS time course): A time course showing the incorporation of zero to 16 methyl groups into R5

Substance: Tyrosinase from mushrooms (Sigma T3824)
- oxidation and polymerization of R5 (absorbance at 350 nm, SDS-PAGE): A time course was generated showing the production of oxidized R5 (FIGS. 6B-6C) and the subsequent spontaneous formation of R5 polymers

Source: patent publication US20180244725
